Article PMC6572788 (Nature Communications, 2019)

What was measured:
[1] = biological target: T1, human wt-CFTR stably overexpressed in BHK-21 cells (human, UniProt P13569); assay: flow cytometry on cells; BHK-21 cells stably overexpressing human wt-CFTR or 2PT-F508del-CFTR, permeabilised with 0.01% β-DDM on ice; 50 µg ml^−1 nanobody; detection by anti-His6 or anti-cMyc antibody and anti-mouse-Alexa Fluor 488; conditions: one partner purified
T1 construct: human CFTR, wild type, full length, in BHK-21 cells; also called cellular CFTR; FL-CFTR; source: BHK-21 cells, stably overexpressing; in permeabilised cells (flow cytometry) and solubilised with 1% DMNG (pull-down)

[2] = biological target: T2, 2PT-NBD1 (human CFTR NBD1, residues 387–646, S492P/A534P/I539T) (Homo sapiens (human), CFTR M470 allele …, S492P | A534P | I539T, biotin (in the ELISA; site not stated)); assay: ITC; nanobody titrated into 2PT-NBD1; NanoITC, 20 °C; 20 mM Hepes pH 7.5, 150 mM NaCl, 10% glycerol, 10% ethylene glycol, 2 mM ATP, 3 mM MgCl2; one-site binding model; conditions: both partners purified
T2 construct: In the crystals treated with papain (6GJU) or subtilisin (6GJQ) parts of the domain were cleaved off (6GJU lacks residues 389–447); source: E. coli BL21(DE3) pLysS, purified (HisTrap, Ulp1 cleavage, Superdex 200); not shown: His6, N-terminal, cleaved; SUMO, N-terminal, cleaved

[3] = biological target: T2, 2PT-NBD1 (human CFTR NBD1, residues …); assay: cell-based or functional assay

T2 sequence (P13569 387-646 V470M/S492P/A534P/I539T): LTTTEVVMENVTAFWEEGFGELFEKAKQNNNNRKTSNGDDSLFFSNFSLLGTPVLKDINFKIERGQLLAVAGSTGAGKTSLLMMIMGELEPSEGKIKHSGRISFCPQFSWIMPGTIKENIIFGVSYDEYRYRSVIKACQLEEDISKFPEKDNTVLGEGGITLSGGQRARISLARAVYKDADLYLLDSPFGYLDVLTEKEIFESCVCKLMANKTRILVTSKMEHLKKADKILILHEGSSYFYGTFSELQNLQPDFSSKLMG
T1 sequence (P13569 whole entry): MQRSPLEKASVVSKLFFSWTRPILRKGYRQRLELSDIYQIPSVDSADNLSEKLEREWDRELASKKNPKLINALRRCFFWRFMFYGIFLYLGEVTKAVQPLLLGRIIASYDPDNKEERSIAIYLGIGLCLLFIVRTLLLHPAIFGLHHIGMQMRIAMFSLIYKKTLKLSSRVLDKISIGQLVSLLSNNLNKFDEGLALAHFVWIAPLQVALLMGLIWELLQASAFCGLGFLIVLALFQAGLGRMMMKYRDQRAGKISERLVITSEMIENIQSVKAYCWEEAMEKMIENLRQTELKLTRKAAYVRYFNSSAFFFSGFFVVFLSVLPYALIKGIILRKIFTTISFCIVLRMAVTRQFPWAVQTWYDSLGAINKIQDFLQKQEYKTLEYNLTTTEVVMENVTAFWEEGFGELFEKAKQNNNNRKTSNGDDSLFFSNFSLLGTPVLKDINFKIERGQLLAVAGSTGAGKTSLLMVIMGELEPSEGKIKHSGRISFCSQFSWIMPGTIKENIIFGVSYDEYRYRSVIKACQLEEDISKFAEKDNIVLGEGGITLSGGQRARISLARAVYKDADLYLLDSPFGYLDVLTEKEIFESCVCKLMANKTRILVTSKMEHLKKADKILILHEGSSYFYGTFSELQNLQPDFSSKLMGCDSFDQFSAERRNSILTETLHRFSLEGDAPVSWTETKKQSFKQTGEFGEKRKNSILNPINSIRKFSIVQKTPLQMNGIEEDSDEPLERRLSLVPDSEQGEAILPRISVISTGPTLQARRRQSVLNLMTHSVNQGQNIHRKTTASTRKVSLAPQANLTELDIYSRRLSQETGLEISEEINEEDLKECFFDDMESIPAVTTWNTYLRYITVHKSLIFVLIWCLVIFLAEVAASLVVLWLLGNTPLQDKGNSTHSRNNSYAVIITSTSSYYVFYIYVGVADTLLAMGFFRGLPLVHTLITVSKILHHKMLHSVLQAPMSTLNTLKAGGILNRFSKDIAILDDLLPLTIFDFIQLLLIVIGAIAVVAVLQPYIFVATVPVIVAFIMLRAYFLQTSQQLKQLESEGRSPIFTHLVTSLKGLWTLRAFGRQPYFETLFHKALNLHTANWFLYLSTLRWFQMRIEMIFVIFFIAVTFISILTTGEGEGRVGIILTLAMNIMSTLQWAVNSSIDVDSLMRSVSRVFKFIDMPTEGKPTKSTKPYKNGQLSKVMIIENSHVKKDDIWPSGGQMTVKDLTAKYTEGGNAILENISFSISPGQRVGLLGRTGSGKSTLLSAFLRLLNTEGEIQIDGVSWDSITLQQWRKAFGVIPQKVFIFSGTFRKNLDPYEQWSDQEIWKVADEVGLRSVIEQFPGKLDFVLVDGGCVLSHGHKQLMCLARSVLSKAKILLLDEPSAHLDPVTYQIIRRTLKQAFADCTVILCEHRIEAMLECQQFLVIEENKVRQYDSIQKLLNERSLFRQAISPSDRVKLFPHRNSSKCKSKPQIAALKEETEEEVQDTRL

| binding result [1] | Kd [2] [nM] | stoichiometry N [2] | Binder | increase of the apparent Tm of 2PT-NBD1 by thermal shift assay (DSF; 10 µM NBD1, 30 µM nanobody) [3] [°C] |
| --- | --- | --- | --- | --- |
| binds | 25 | 1 | nanobody T27 (VHH, pXAP100 vector, C-terminal His6-cMyc tag; source: E. coli BL21(DE3) pLysS, periplasmic extract, purified (Ni-NTA, SEC); not shown: His6, C-terminal, kept; cMyc, C-terminal, kept) VHH: QVQLQESGGGLEQPGGSLRLSCATSGVIFGINAMGWYRQAPGKQRELVATFTSGGSTNYADFVEGRFTISRDNAKNTVYLQMNGLRPEDTAVYYCHATVVVSRYGLTYDYWGQGTQVTVSS | 11.9 |
| binds |  |  | nanobody D12 (VHH, pXAP100 vector, C-terminal His6-cMyc tag; source: E. coli BL21(DE3) pLysS, periplasmic extract, purified (Ni-NTA, SEC); not shown: His6, C-terminal, kept; cMyc, C-terminal, kept) VHH: QVQLQESGGGLVQAGSSLRLACAATGSIRSINNMGWYRQAPGKQRGMVAIITRVGNTDYADSVKGRFTISRDNAKNTVYLQMNSLKPEDTATYYCHAEITEQSRPFYLTDDYWGQGTQVTVSS | 13.8 |
| binds | 54 | 1 | nanobody T2a (VHH, pXAP100 vector, C-terminal His6-cMyc tag; source: E. coli BL21(DE3) pLysS, periplasmic extract, purified (Ni-NTA, SEC); not shown: His6, C-terminal, kept; cMyc, C-terminal, kept) VHH: QVQLQESGGGLVQAGGSLRLSCAASGSIFRIDAMGWYRQAPGKQRELVAHSTSGGSTDYADSVKGRFTISRDNAKNTVYLQMNSLKPEDTAVYYCNADVRTRWYASNNYWGQGTQVTVSS | 11.2 |
| binds | 1100 | 1 | nanobody G3a (VHH, pXAP100 vector, C-terminal His6-cMyc tag; source: E. coli BL21(DE3) pLysS, periplasmic extract, purified (Ni-NTA, SEC); not shown: His6, C-terminal, kept; cMyc, C-terminal, kept) VHH: QVQLQESGGGLVQAGGSLRLSCTASGRAFSWYVMGWFRQAPGKEREFVATVSGNGSRRDYADSVKGRFTISRDNAKNTVYLQMNSLKPEDTAVYYCAASSTYYYTDPEKYDYWGQGTQVTVSS |  |
| binds | 37.9 | 1 | nanobody T4 (VHH, pXAP100 vector, C-terminal His6-cMyc tag; source: E. coli BL21(DE3) pLysS, periplasmic extract, purified (Ni-NTA, SEC); not shown: His6, C-terminal, kept; cMyc, C-terminal, kept) VHH: QVQLQESGGGLVQAGGSLRLSCAASGSTFAIIAMGWYRQAPGKQRELVAVISTGDTRYADSVKGRFTISRDNAKNTVYLQMDSLRPEDTAVYYCNAAVQVRDYRNYWGQGTQVTVSS | 12.5 |
| binds | 39 | 1 | nanobody T8 (VHH, pXAP100 vector, C-terminal His6-cMyc tag; source: E. coli BL21(DE3) pLysS, periplasmic extract, purified (Ni-NTA, SEC); not shown: His6, C-terminal, kept; cMyc, C-terminal, kept) VHH: QVQLQESGGGLVQPGGSLRLSCAASGSTSSINAMGWYRQAPGKQREPVAISSSGGDTRYAEPVKGRFTISRDNAQNKVYLQMNSLKPEDTAVYYCWLNWGRTSVNSWGQGTQVTVSS | 9.1 |
